Test results taken from publication PMC9482650, “Quantitative fragmentomics allow affinity mapping of interactomes” (Nature Communications, 2022).

T1: APBA2_1, Q99767
T1 sequence (Q99767 563-664, limits assumed, looked up): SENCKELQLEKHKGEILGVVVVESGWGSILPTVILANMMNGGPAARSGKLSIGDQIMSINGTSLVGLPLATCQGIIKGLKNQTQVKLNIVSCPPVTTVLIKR

T2: APBA2_2, Q99767
T2 sequence (Q99767 654-744, limits assumed, looked up): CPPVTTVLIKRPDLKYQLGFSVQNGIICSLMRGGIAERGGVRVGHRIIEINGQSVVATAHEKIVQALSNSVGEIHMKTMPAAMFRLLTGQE

T3: ARHGEF11, O15085
T3 sequence (O15085 42-136, limits assumed, looked up): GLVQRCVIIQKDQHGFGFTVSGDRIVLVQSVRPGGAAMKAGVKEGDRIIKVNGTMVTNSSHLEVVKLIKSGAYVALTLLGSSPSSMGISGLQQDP

T4: DFNB31_1, Q9P202
T4 sequence (Q9P202 135-233, limits assumed, looked up): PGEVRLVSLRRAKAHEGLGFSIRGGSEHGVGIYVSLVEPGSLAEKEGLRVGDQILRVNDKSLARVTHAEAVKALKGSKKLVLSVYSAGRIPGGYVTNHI

T5: DLG3_3, Q92796
T5 sequence (Q92796 374-475, limits assumed, looked up): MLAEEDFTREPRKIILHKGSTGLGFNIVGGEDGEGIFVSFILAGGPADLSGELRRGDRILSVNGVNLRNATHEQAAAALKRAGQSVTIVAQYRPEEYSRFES

T6: GRIP1_2, Q9Y3R0
T6 sequence (Q9Y3R0 145-248, limits assumed, looked up): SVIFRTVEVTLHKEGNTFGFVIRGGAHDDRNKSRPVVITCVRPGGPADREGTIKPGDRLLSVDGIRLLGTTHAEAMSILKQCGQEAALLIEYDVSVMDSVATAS

T7: GRIP1_3, Q9Y3R0
T7 sequence (Q9Y3R0 247-346, limits assumed, looked up): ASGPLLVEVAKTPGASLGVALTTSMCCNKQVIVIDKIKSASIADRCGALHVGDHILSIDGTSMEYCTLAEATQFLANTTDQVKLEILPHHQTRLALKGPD

T8: GRIP1_7, Q9Y3R0
T8 sequence (Q9Y3R0 999-1096, limits assumed, looked up): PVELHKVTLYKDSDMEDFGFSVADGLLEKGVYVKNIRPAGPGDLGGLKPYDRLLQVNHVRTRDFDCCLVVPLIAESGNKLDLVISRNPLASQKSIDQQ

T9: LNX2_3, Q8N448
T9 sequence (Q8N448 463-564, limits assumed, looked up): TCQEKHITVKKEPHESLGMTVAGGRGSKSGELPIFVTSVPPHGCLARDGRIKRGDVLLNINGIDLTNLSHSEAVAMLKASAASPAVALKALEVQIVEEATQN

T10: MPP2, Q14168
T10 sequence (Q14168 180-250, limits assumed, looked up): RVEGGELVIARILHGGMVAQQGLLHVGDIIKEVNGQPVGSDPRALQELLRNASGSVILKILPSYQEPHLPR

T11: MPP6, Q9NZW5
T11 sequence (Q9NZW5 125-219, limits assumed, looked up): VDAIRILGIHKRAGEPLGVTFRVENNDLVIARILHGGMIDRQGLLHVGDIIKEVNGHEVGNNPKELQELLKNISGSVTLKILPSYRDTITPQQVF

T12: NHERF3_4, Q5T2W1
T12 sequence (Q5T2W1 373-468, limits assumed, looked up): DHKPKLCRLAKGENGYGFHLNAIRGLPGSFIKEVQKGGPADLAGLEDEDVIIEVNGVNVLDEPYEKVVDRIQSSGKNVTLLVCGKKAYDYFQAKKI

T13: SNTB1, Q13884
T13 sequence (Q13884 107-205, limits assumed, looked up): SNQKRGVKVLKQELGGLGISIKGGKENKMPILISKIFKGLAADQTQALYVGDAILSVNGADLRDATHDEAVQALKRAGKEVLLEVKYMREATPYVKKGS


Columns and labels:
Experiment in all cases: holdup assay
Design in all cases: key: below the threshold = too weak to quantify, mostly under pKd 3.1 to 4
Settings in all cases: plain residues with an end cap or a label only (N-terminal biotin on a linker: ado-ado)
APBA2_1, Q99767 = biological target: T1, APBA2_1, Q99767
APBA2_2, Q99767 = biological target: T2, APBA2_2, Q99767
ARHGEF11, O15085 = biological target: T3, ARHGEF11, O15085
CASK, O14936 = biological target: CASK, O14936
DFNB31_1, Q9P202 = biological target: T4, DFNB31_1, Q9P202
DLG1_3, Q12959 = biological target: DLG1_3, Q12959
DLG3_3, Q92796 = biological target: T5, DLG3_3, Q92796
DLG4_1, P78352 = biological target: DLG4_1, P78352
GIPC2, Q8TF65 = biological target: GIPC2, Q8TF65
GORASP2, Q9H8Y8 = biological target: GORASP2, Q9H8Y8
GRID2IP_1, A4D2P6 = biological target: GRID2IP_1, A4D2P6
GRIP1_2, Q9Y3R0 = biological target: T6, GRIP1_2, Q9Y3R0
GRIP1_3, Q9Y3R0 = biological target: T7, GRIP1_3, Q9Y3R0
GRIP1_7, Q9Y3R0 = biological target: T8, GRIP1_7, Q9Y3R0
IL16_4, Q14005 = biological target: IL16_4, Q14005
LNX1_3, Q8TBB1 = biological target: LNX1_3, Q8TBB1
LNX2_3, Q8N448 = biological target: T9, LNX2_3, Q8N448
MAST2, Q6P0Q8 = biological target: MAST2, Q6P0Q8
MPP2, Q14168 = biological target: T10, MPP2, Q14168
MPP6, Q9NZW5 = biological target: T11, MPP6, Q9NZW5
NHERF3_4, Q5T2W1 = biological target: T12, NHERF3_4, Q5T2W1
NOS1, P29475 = biological target: NOS1, P29475
SNTB1, Q13884 = biological target: T13, SNTB1, Q13884
TJP1_3, Q07157 = biological target: TJP1_3, Q07157
Sequence of TJP1_3, Q07157 (Q07157 416-512): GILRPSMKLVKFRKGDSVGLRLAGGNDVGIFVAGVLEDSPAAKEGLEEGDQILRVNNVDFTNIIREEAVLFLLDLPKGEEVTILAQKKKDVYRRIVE

Sequence of CASK, O14936 (O14936 487-570): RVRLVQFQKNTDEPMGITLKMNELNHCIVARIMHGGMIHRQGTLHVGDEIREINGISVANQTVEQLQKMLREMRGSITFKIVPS
Sequence of DLG4_1, P78352 (P78352 62-152): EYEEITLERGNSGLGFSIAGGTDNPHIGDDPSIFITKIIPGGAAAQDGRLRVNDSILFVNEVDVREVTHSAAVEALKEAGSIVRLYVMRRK
Sequence of GIPC2, Q8TF65 (Q8TF65 112-203): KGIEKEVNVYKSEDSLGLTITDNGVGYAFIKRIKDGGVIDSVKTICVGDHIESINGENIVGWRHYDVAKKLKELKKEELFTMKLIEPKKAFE
Sequence of LNX1_3, Q8TBB1 (Q8TBB1 500-596): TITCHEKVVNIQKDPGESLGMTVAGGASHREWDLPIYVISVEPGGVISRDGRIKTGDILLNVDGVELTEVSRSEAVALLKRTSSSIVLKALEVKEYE
Sequence of MAST2, Q6P0Q8 (Q6P0Q8 1099-1202): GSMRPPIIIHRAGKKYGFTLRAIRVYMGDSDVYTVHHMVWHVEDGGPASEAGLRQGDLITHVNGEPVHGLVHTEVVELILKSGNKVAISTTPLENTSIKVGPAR
Sequence of DLG1_3, Q12959 (Q12959 457-571): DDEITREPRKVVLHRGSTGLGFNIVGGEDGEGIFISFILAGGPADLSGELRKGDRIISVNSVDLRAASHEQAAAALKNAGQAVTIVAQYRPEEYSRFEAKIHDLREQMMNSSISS
Sequence of IL16_4, Q14005 (Q14005 1229-1329): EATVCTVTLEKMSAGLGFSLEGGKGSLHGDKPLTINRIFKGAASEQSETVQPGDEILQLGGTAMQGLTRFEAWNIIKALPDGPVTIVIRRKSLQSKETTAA
Sequence of NOS1, P29475 (P29475 9-101): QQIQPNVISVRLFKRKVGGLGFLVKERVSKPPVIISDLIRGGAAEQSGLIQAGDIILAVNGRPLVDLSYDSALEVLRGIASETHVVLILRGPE
Sequence of GRID2IP_1, A4D2P6 (A4D2P6 1-87): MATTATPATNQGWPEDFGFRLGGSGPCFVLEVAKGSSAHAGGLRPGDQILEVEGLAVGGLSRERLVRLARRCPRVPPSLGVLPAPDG

Row | pKd (APBA2_1, Q99767) | pKd (APBA2_2, Q99767) | pKd (ARHGEF11, O15085) | pKd (CASK, O14936) | pKd (DFNB31_1, Q9P202) | pKd (DLG1_3, Q12959) | pKd (DLG3_3, Q92796) | pKd (DLG4_1, P78352) | pKd (GIPC2, Q8TF65) | pKd (GORASP2, Q9H8Y8) | pKd (GRID2IP_1, A4D2P6) | pKd (GRIP1_2, Q9Y3R0) | pKd (GRIP1_3, Q9Y3R0) | pKd (GRIP1_7, Q9Y3R0) | pKd (IL16_4, Q14005) | pKd (LNX1_3, Q8TBB1) | pKd (LNX2_3, Q8N448) | pKd (MAST2, Q6P0Q8) | pKd (MPP2, Q14168) | pKd (MPP6, Q9NZW5) | Binder | other results
1 | below the threshold | below the threshold | 3.72 | below the threshold | 3.79 | below the threshold | below the threshold | 4.24 | below the threshold | 4.03 | below the threshold | below the threshold | below the threshold | below the threshold | below the threshold | below the threshold | below the threshold | 4.73 | below the threshold | below the threshold | APIAGFSSFV [SDK2, Q58EX2] | pKd (NHERF3_4, Q5T2W1): below the threshold; pKd (NOS1, P29475): 3.53; pKd (SNTB1, Q13884): 3.97; pKd (TJP1_3, Q07157): below the threshold
2 | below the threshold | below the threshold | below the threshold | below the threshold | below the threshold | below the threshold | below the threshold | below the threshold | below the threshold | below the threshold | below the threshold | below the threshold | below the threshold | below the threshold | below the threshold | below the threshold | below the threshold | 5.4 | below the threshold | below the threshold | EDPRVEVTQF [SLC22A9, Q8IVM8] | pKd (NHERF3_4, Q5T2W1): 4.58; pKd (NOS1, P29475): 3.63; pKd (SNTB1, Q13884): below the threshold; pKd (TJP1_3, Q07157): below the threshold
3 | below the threshold | below the threshold | 4.61 | below the threshold | 3.81 | 4.02 | below the threshold | below the threshold | below the threshold | below the threshold | below the threshold | below the threshold | below the threshold | below the threshold | below the threshold | below the threshold | below the threshold | 4.9 | below the threshold | below the threshold | ELSATVTTDC [TRIP6, Q15654] | pKd (NHERF3_4, Q5T2W1): below the threshold; pKd (NOS1, P29475): below the threshold; pKd (SNTB1, Q13884): 4.34; pKd (TJP1_3, Q07157): below the threshold
